Target: T1, human ROR1 expressed on cells (MDA-MB-231, JIMT-1, CLL patient cells) (human, UniProt Q01973 30-937)
T1 construct: whole, on cells; also called hROR1; plasma-membrane human ROR1
Test: flow cytometry on MDA-MB-231 cells

T1 sequence (Q01973 30-937): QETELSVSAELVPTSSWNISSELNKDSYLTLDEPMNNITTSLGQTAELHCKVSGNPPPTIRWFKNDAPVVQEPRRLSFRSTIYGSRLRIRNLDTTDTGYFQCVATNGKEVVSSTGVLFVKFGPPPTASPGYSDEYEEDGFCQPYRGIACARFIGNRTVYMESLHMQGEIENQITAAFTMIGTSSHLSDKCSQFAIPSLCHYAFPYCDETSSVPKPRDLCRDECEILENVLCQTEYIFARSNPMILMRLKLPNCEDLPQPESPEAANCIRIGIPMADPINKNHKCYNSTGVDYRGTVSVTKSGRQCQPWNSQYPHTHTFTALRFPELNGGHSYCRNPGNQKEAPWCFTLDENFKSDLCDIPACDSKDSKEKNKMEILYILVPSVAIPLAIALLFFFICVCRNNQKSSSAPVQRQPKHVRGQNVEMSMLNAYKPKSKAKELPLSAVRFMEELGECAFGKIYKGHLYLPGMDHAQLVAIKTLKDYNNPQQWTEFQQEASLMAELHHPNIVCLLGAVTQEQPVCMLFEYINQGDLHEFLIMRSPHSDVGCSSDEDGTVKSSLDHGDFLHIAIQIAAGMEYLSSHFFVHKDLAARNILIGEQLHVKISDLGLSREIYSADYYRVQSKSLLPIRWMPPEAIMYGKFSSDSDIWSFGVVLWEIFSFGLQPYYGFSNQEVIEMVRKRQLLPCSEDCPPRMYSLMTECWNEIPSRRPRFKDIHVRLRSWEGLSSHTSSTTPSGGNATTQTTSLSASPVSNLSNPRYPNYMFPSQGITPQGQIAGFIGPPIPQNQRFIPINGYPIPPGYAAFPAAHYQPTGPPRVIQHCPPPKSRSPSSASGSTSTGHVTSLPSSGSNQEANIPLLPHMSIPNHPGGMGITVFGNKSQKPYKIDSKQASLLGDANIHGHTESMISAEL

B1: PRO2062 (scFv, V domains shown)
VH: QSQLVESGGGLVQPGGSLRLSCAVSGLSLSRNAMSWVRQAPGKGLEWIGIILTSGSTYYASWAKGRFTISKDNSKNTVYLQMNSLRAEDTAVYFCVRGIASSSLKSFWGQGTLVTVSS
VL: AQQLTQSPSSLSASVGDRVTITCQASQNVWNNNYLSWFQQKPGKPPKLLIVTASTLASGVSSRFSGSGSGTDFTLTISSLQPEDFATYYCAGGFSGEIRAFGTGTKVTVLG
fold higher apparent binding affinity than reference Fab PRO2213: ~3 fold

B2: PRO2271 (scFv, V domains shown)
VH: QSQLVESGGGLVQPGGSLRLSCAVSGIDLSRNAMSWVRQAPGKGLEWIGIILTSGSTYYASWAKGRFTISKTSTTLDLQMNSLRAEDTAVYFCVRGIASSSLKSFWGQGTLVTVSS
VL: AQQLTQSPSSLSASVGDRVTITCQASQNVWNNNYLSWFQQKPGKPPKLLIVTASTLASGVSSRFSGSGSGTDFTLTISSLQPEDFATYYCAGGFSGEIRAFGTGTKVTVLG
fold lower apparent binding affinity than original scFv PRO2062: ~2 fold

B3: PRO2060 (scFv, V domains shown)
VH: QSQVVESGGGLVQPGGSLRLSCAVSGFDLSSYAVSWVRQAPGKGLEWIGIIYPRANTYYASWAKGRFTISKDNSKNTVYLQMNSLRAEDTAVYFCARDRYDSGAYLYTTYFNLWGQGTLVTVSS
VL: DVQMTQSPSSLSASVGDRVTITCRASENIYSGLAWYQQKPGKPPKLLIYRASTLASGVSSRFSGSGSGTDFTLTISSLQPEDFATYYCQGGYYSSSSTYIAFGTGTKVTVLG
fold lower apparent binding affinity than reference Fab PRO2213: ~3 fold

From patent CN117043185A (NUMAB INNOVATION AG, dated 2023)
